Assay results published in patent publication US11912755B2, “Endostatin fragments and variants for use in treating fibrosis” (iBio, Inc., priority 2015, dated 2024).

B1: E3_C67A-Fc_IgA1: SEQ ID NO: 25 (protein)
chain: MGKMASLFATFLVVLVSLSLASESSASYCETWRTEAPSATGQASSLLGGRLLGQSAASCHHAYIVLAIENSFMTVPCPVPSTPPTPSPSTPPTPSPSCCHPRLSLHRPALEDLLLGSEANLTCTLTGLRDASGVTFTWTPSSGKSAVQGPPERDLCGCYSVSSVLPGCAEPWNHGKTFTCTAAYPESKTPLTATLSKSGNTFRPEVHLLPPPSEELALNELVTLTCLARGFSPKDVLVRWLQGSQELPREKYLTWASRQEPSQGTTTFAVTSILRVAAEDWKKGDTFSCMVGHEALPLAFTQKTIDRLAGKPTHVNVSVVMAEVDGTCY
modifications: E3_C67A-Fc_IgA1 fusion
B2: E3_C67A-Fc_IgG3: SEQ ID NO: 23 (protein)
chain: MGKMASLFATFLVVLVSLSLASESSASYCETWRTEAPSATGQASSLLGGRLLGQSAASCHHAYIVLAIENSFMTELKTPLGDTTHTCPRCPEPKSCDTPPPCPRCPEPKSCDTPPPCPRCPEPKSCDTPPPCPRCPAPELLGGPSVFLFPPKPKDTLMISRTPEVTCVVVDVSHEDPEVQFKWYVDGVEVHNAKTKPREEQYNSTFRVVSVLTVLHQDWLNGKEYKCKVSNKALPAPIEKTISKTKGQPREPQVYTLPPSREEMTKNQVSLTCLVKGFYPSDIAVEWESSGQPENNYNTTPPMLDSDGSFFLYSKLTVDKSRWQQGNIFSCSVMHEALHNRFTQKSLSLSPGK
modifications: E3_C67A-Fc_IgG3 fusion
B3: E3_C67A-Fc_IgA2: SEQ ID NO: 26 (protein)
chain: MGKMASLFATFLVVLVSLSLASESSASYCETWRTEAPSATGQASSLLGGRLLGQSAASCHHAYIVLAIENSFMTVPCPVPPPPPCCHPRLSLHRPALEDLLLGSEANLTCTLTGLRDASGATFTWTPSSGKSAVQGPPERDLCGCYSVSSVLPGCAQPWNHGETFTCTAAHPELKTPLTANITKSGNTFRPEVHLLPPPSEELALNELVTLTCLARGFSPKDVLVRWLQGSQELPREKYLTWASRQEPSQGTTTFAVTSILRVAAEDWKKGDTFSCMVGHEALPLAFTQKTIDRMAGKPTHVNVSVVMAEVDGTCY
modifications: E3_C67A-Fc_IgA2 fusion

Key:
[1] = tested on: TGF-β-induced dermal fibrosis in mouse skin; assay: In vivo TGF-β-induced dermal fibrosis in mouse skin; conditions: 10 μg/ml intradermal with TGF-β 10 ng/ml; one week
Method: In Vivo Mouse Experiments. CB57BL6/J male mice were purchased from The Jackson Laboratory (Bar Harbor, ME). Human rE (10 μg/ml) or Endostatin peptides (10 μg/ml) in combination with TGF-β (10 ng/ml), or TGF-β alone were injected intradermally on the back of mice in a total volume of 100 μl 1×PBS. Mice were injected in two different skin sites and sacrificed one week post-injection. Skin surrounding the injection site was harvested and fixed in 10% formalin prior to embedding in paraffin.
Measurement of Skin Dermal Thickness. Six μm sections of paraffin-embedded human and mouse skin tissues were stained with hematoxylin and eosin (H&E). In some experiments, sections were stained with Masson trichrome which identifies collagens. Images were taken on a Nikon Eclipse 800 microscope. The thickness of the dermis was measured in 6 random fields of each section using the image/J® software. Data are shown in arbitrary units.
E4, a peptide representing the carboxy terminus of human endostatin, can attenuate fibrosis triggered by multiple fibrogenic factors. The anti-fibrotic effects of E4 can be detected whether administered concomitantly with or following the fibrogenic trigger. The efficacy of E4 was confirmed in […] pre-clinical models of fibrosis: a) bleomycin-induced dermal fibrosis in vivo in mouse skin, b) TGF-β induced dermal fibrosis in mouse skin, and c) bleomycin-induced pulmonary fibrosis. E4 peptide or a control peptide (E1; representing the amino terminal region of endostatin) were administered at the same time as TGF-β or bleomycin or 3-4 days following TGF-β or bleomycin. Mice were sacrificed one and two weeks after TGF-β-initiation of dermal fibrosis, and two and three weeks after bleomycin-induced pulmonary fibrosis. Two different modes of administration of the E4 peptide were also tested. It was confirmed that intraperitoneal and intratracheal administration was effective. The amount of E4 that was administered was 10 μg/ml in a total volume of 100 μl for skin and IP injections and 50 μl for IT administration.
For these studies, fibrosis was assessed by measurement of dermal thickness on H&E skin sections (skin), assessment of collagen levels by Masson Trichrome staining (skin and lung), and measurement of collagen levels by Sircol assay (lung). Furthermore, to confirm the mechanism by which E4 exerts its anti-fibrotic effects, the production of extra-cellular matrix (ECM) components, the levels of enzymes that promote matrix stabilization and thus accumulation and levels of those that degrade ECM components, and levels of transcription factors downstream of the pro-fibrotic triggers were evaluated. Results were assessed using the unpaired t test and the 3-way ANOVA (for the ID1 data).

[2] = tested on: human primary lung fibroblasts; assay: Western blot of FN, Col1α1 and α-SMA in primary lung fibroblasts; type: cell-based; conditions: normal human lung fibroblasts; TGF-β 24 h, then 5 μg/ml for 48 h
Method: Primary Fibroblast Culture. Human primary lung and skin fibroblasts were cultured. The explanted lungs of normal organ donors, patients with SSc or IPF, and clinically involved skin of SSc patients, a morphea patient and healthy donors were used for primary fibroblast culture. Approximately 2-cm pieces of peripheral lung and skin were minced and fibroblasts were cultured in Dulbecco's modified Eagle's medium (DMEM; Mediatech, Herndon, Va.) supplemented with 10% FBS, penicillin, streptomycin, and anti-mycotic agent, as previously described (Feghali et al., Arthritis Rheum 1999; 42:1451-7). All the cells were used between passages 3-6.
Western Blot Analysis. Cellular lysates were obtained from cultured fibroblasts as previously described (Pilewski et al., Am J Pathol 2005; 166:399-407). Briefly, 2.0×10^5 primary fibroblasts were cultured in 35-mm wells in 0.5% FBS-containing medium supplemented with 10 ng/ml of human recombinant TGF-β or PBS as vehicle control for 24 h, […] In some experiments, endostatin peptides were used without TGF-β stimulation. Cellular lysates were analyzed by Western blot. Signals were detected following incubation with horseradish peroxidase-conjugated secondary antibody and chemiluminescence (Perkin Elmer Life Sciences, Inc., Boston, Mass.). The intensity of individual bands with expected molecular sizes was semi-quantitatively analyzed using the image/J® software available at on the Internet (/rsb.info.nih.gov/ij/index.html), and normalized to individual GAPDH intensity.

[3] = Solubility of Ig Fc fusions to E3 in plant lysates; type: physicochemical; conditions: plant lysate, non-denaturing (normal) grind buffer
Text: For IgG Fc expression, clarified plant lysates were run on a Western blot (Genway chicken E3 antibody). Fusions included E3 (C67A) linked to either the N-terminus of the hinge+Fc domains of IgG2, IgG3, or IgG4, or to the C-terminus of the hinge +Fc domain of IgG1. […] The E3-IgG1 fusion expressed well. The non-reducing samples all appeared to form large structures, although perhaps not as large as the END-55 (iBioCFB03) BMW multimers (FIG. 24).
For IgA/M expression, clarified plant lysates were ground in either denaturing (total) or non-denaturing buffer (soluble) and run on a Western blot (Genway chicken E3 antibody). Fusions contained E3 (C67A) linked to the N-terminus of the hinge+Fc domains of IgA1, IgA2, or IgM. The IgA1 and IgA2 fusions were insoluble in normal grind buffer. The IgM fusion had very low expression. J-chain co-expression had no obvious effect.

| Molecule | TGF-β-induced dermal fibrosis (dermal thickness) [1] | FN and Col1α1 levels [2] | solubility [3] |
| --- | --- | --- | --- |
| E2: synthetic peptide, amino acids 71-115 of SEQ ID NO: 2 (IVNLKDELLFPSWEALFSGSEGPLKPGARIFSFNGKDVLTHPTWP; listed as Homo sapiens) | significantly reduced |  |  |
| E1: synthetic peptide, amino acids 1-45 of SEQ ID NO: 2 (human endostatin) (HSHRDFQPVLHLVALNSPLSGGMRGIRGADFQCFQQARAVGLAGT; listed as Homo sapiens) | did not alter | no effect |  |
| IgG1_Fc-E3_C67A: SEQ ID NO: 29, C-terminal fusion of E3 C67A to IgG1 Fc |  |  | soluble |
| B1 |  |  | insoluble |
| B2 |  |  | soluble |
| B3 |  |  | insoluble |
